“And” between values parts separate entries of the source, which are not always exact repeats. Identical values can stand only once.
Tests used:
[1] = biological target: the molecule itself; assay: cross-linking; lysate of PHGDH-KO PMs transfected with PHGDH or PHGDH (V425M) for 48 h; 0.25 mM cross-linker (DSS in the legend, dimethyl suberimidate in the methods), room temperature 10 min; Western blot
[2] = biological target: the molecule itself; assay: cross-linking; lysate of WT PMs (native lysis buffer), untreated or pretreated with 15 μM CBR-5884 for 6 h; 0.25 mM cross-linker (DSS in the legend, dimethyl suberimidate in the methods), room temperature 10 min; Western blot of PHGDH

B1: PHGDH-Flag, expressed in PHGDH-KO peritoneal macrophages (enzyme, UniProt Q61753 1-533, looked up)
chain: MAFANLRKVLISDSLDPCCRKILQDGGLQVVEKQNLSKEELIAELQDCEGLIVRSATKVTADVINAAEKLQVVGRAGTGVDNVDLEAATRKGILVMNTPNGNSLSAAELTCGMIMCLARQIPQATASMKDGKWDRKKFMGTELNGKTLGILGLGRIGREVATRMQSFGMKTVGYDPIISPEVAASFGVQQLPLEEIWPLCDFITVHTPLLPSTTGLLNDSTFAQCKKGVRVVNCARGGIVDEGALLRALQSGQCAGAALDVFTEEPPRDRALVDHENVISCPHLGASTKEAQSRCGEEIAVQFVDMVKGKSLTGVVNAQALTSAFSPHTKPWIGLAEAMGTLMHAWAGSPKGTIQVVTQGTSLKNAGTCLSPAVIVGLLREASKQADVNLVNAKLLVKEAGLNVTTSHNPGVPGEQGSGECLLTVALAGAPYQAVGLVQGTTPMLQMLNGAVFRPEVPLRRGQPLLVFRAQPSDPGMLPTMIGLLAEAGVQLLSYQTSMVSDGEPWHVMGLSSLLPSLETWKQHVLEAFQFCF
notes: phosphoglycerate dehydrogenase (PHGDH); also called WT PHGDH; PHGDH-HA (methods); source: PHGDH-KO mouse peritoneal macrophages, transfected 48 h, in lysate
[1]
  stoichiometry N: 4

B2: PHGDH (V425M)-Flag, expressed in PHGDH-KO peritoneal macrophages (enzyme, UniProt Q61753 1-533, looked up)
chain: MAFANLRKVLISDSLDPCCRKILQDGGLQVVEKQNLSKEELIAELQDCEGLIVRSATKVTADVINAAEKLQVVGRAGTGVDNVDLEAATRKGILVMNTPNGNSLSAAELTCGMIMCLARQIPQATASMKDGKWDRKKFMGTELNGKTLGILGLGRIGREVATRMQSFGMKTVGYDPIISPEVAASFGVQQLPLEEIWPLCDFITVHTPLLPSTTGLLNDSTFAQCKKGVRVVNCARGGIVDEGALLRALQSGQCAGAALDVFTEEPPRDRALVDHENVISCPHLGASTKEAQSRCGEEIAVQFVDMVKGKSLTGVVNAQALTSAFSPHTKPWIGLAEAMGTLMHAWAGSPKGTIQVVTQGTSLKNAGTCLSPAVIVGLLREASKQADVNLVNAKLLVKEAGLNVTTSHNPGVPGEQGSGECLLTMALAGAPYQAVGLVQGTTPMLQMLNGAVFRPEVPLRRGQPLLVFRAQPSDPGMLPTMIGLLAEAGVQLLSYQTSMVSDGEPWHVMGLSSLLPSLETWKQHVLEAFQFCF
notes: phosphoglycerate dehydrogenase (PHGDH) with V425M made by site-directed mutagenesis; also called PHGDH (V425M)-HA (methods); source: PHGDH-KO mouse peritoneal macrophages, transfected 48 h, in lysate
[1]
  stoichiometry N: 4 and 2

B3: PHGDH, endogenous in mouse peritoneal macrophages (enzyme, UniProt Q61753 1-533, looked up)
chain: MAFANLRKVLISDSLDPCCRKILQDGGLQVVEKQNLSKEELIAELQDCEGLIVRSATKVTADVINAAEKLQVVGRAGTGVDNVDLEAATRKGILVMNTPNGNSLSAAELTCGMIMCLARQIPQATASMKDGKWDRKKFMGTELNGKTLGILGLGRIGREVATRMQSFGMKTVGYDPIISPEVAASFGVQQLPLEEIWPLCDFITVHTPLLPSTTGLLNDSTFAQCKKGVRVVNCARGGIVDEGALLRALQSGQCAGAALDVFTEEPPRDRALVDHENVISCPHLGASTKEAQSRCGEEIAVQFVDMVKGKSLTGVVNAQALTSAFSPHTKPWIGLAEAMGTLMHAWAGSPKGTIQVVTQGTSLKNAGTCLSPAVIVGLLREASKQADVNLVNAKLLVKEAGLNVTTSHNPGVPGEQGSGECLLTVALAGAPYQAVGLVQGTTPMLQMLNGAVFRPEVPLRRGQPLLVFRAQPSDPGMLPTMIGLLAEAGVQLLSYQTSMVSDGEPWHVMGLSSLLPSLETWKQHVLEAFQFCF
notes: phosphoglycerate dehydrogenase (PHGDH), endogenous in mouse peritoneal macrophages; Seen as tetramers and dimers after cross-linking of the lysate; also called endogenous PHGDH; source: endogenous, mouse peritoneal macrophage (PM) extract
[2]
  stoichiometry N: 4 and 2

Reference: article PMC12509985, “Phosphoglycerate dehydrogenase interacts with and inhibits the protein kinase TAK1 to mitigate septic shock” (The Journal of Biological Chemistry, 2025)
